From patent publication US20230041268A1

Biological target: CMV pp65 peptide on HLA-A*02:01 (human)
Experiment: CD137 up-regulation; peptide titration on the HLA-A02:01 positive B cell line; full-length, on cells
Settings: chains Valpha:Vbeta

EC50 of peptide: 0.01 µM
B1: TCR6-2 (CMV A2/pp65 495-503-specific) (protein)
chain 1: GQQLNQSPQSMFIQEGEDVSMNCTSSSIFNTWLWYKQDPGEGPVLLIALYKAGELTSNGRLTAQFGITRKDSFLNISASIPSDVGIYFCAGPMKTSYDKVIFGPGTSLSVIP
chain 2: DAGVIQSPRHEVTEMGQEVTLRCKPISGHDYLFWYRQTMMRGLELLIYFNNNVPIDDSGMPEDRFSAKMPNASFSTLKIQPSEPRDSAVYFCASSSANYGYTFGSGTRLTVV
